{"source": "the DeepSol protein solubility set", "data": [{"experiment": "soluble on expression in E. coli; label from the status in PepcDB or PDB records", "values": [{"sequence": "MQRVTITLDDDLLETLDSLSQRRGYNNRSEAIRDILRGALAQEATQEHGTQGFAVLSYVYEHEKRDLASRIVSTQHHHHDLSVATLHVHINHDDCLEIAVLKGDMGDVQHFADDVIAQRGVRHGHLQCLPKED", "soluble on expression in E. coli": "not soluble"}, {"sequence": "MDTDAIRSEIFGQLARPDNSGIPKYRRLSNILVEAIRRGVWQPGDRLPAEEQLTEMTPFSLGTVQRALRALTDEGLVIRMQGHGNFVADQQRQMADPWHCRFLDDESDGIVPIYSKAVQRAVVTPSETGPWQRYLHSGSVMRLDRIINVNDEFRIFSRFYADRELLQPLWHVPLEELDGANFKDIIMRQVGLPITEIDRSVRIRRIDAQAARLIGVAPEATVLFMQAVARAGRDACIYYQEFYIPETGRALQLPEQRPRVHGR", "soluble on expression in E. coli": "not soluble"}, {"sequence": "MVKSFLMLGQSNMAGRGFINEVPMIYNERIQMLRNGRWQMMTEPINYDRPVSGISLAGSFADAWSQKNQEDIIGLIPCAEGGSSIDEWALDGVLFRHALTEAKFAMESSELTGILWHQGESDSLNGNYKVYYKKLLLIIEALRKELNVPDIPIIIGGLGDFLGKERFGKGCTEYNFINKELQKFAFEQDNCYFVTASGLTCNPDGIHIDAISQRKFGLRYFEAFFNRKHVLEPLINENELLNLNYARTHTKAEKIYIKSMDFALGKISYDEFTSELMKINNDLEHHHHHH", "soluble on expression in E. coli": "soluble"}, {"sequence": "NANDNVVIVGTGLAGVEVAFGLRASGWEGNIRLVGDATVIPHHLPPLSKAYLAGKATAESLYLRTPDAYAAQNIQLLGGTQVTAINRDRQQVILSDGRALDYDRLVLATGGRPRPLPVASGAVGKANNFRYLRTLEDAECIRRQLIADNRLVVIGGGYIGLEVAATAIKANMHVTLLDTAARVLERVTAPPVSAFYEHLHREAGVDIRTGTQVCGFEMSTDQQKVTAVLCEDGTRLPADLVIAGIGLIPNCELASAAGLQVDNGIVINEHMQTSDPLIMAVGDCARFHSQLYDRWVRIESVPNALEQARKIAAILCGKVPRDEAAPWFWSDQYEIGLKMVGLSEGYDRIIVRGSLAQPDFSVFYLQGDRVLAVDTVNRPVEFNQSKQIITDRLPVEPNLLGDESVPLKEIIAAAKAELSSAKAELSSAPRHHHHHH", "soluble on expression in E. coli": "soluble"}, {"sequence": "MPVGRKEQIVDCRAVMGLGEGGGLAQRGTFAEGLRNDVVVVAMSPGRRHITKPVCEITYGIREAGIQTSVLVLDAGGGIPSDAPQGSLGSTFGLKPEEAKQVNRHKLCVIHFGNVKSHIIYKARLFLKYVDIPTIIVCQTPVDMEDFAAIGIKTKNVMPLESKTEGKIVEIITGVIRGESAPQKKIDEIIESIKKHLGLEHHHHHH", "soluble on expression in E. coli": "not soluble"}, {"sequence": "MAAKLEKTTNSFEVITREWYAKFSPTWNESHGERIIRRFERDIFPWIGSKPISEIAAPELLATVRRIESRGAVETAHRALGNCGQVFRYAIATARATRDISADLRGALPPVKGEHLEHHHHHH", "soluble on expression in E. coli": "soluble"}, {"sequence": "MLIQIDSNVLFANVDTLGNIVSTTTNGIGSAGKTTLDGHYSSISGFDQLGASHGAVIKGGIGSAMKTMQQLTEQVNWLKEALNSSRLAFSSQNNFVSRGMDIADEGGNVGGEEVVFPNRPDVVYEDFSFPQPVVQKASSIDELAAAFASTNDSEVEEAVATWKSLSEMATETSQDLRNVAAEVGEHNHGAVFDKAVERIGEIAANAESFAANASTMANHVGLMSQLKTMRMSDVLSAQQALSKIEDPMERKVLEEEFLSRLQSAIQSDVGQSVPVIRNLVTMRSTGGNSGQSIATGMETIAGNGKFSHTGLSSASGATLQPATMGQHPDNLGDFAAVNSRTGQSIDPFSLSTQQAGWTSPDFQPSAGGSSGLNPIKAPLTSAHSSMPASAQTVSTHPSSATGLGVTPIGPRADAMAMYPSANSKPHNSGLNGTSKIGGSSIAQLGASPQSGVSRSAAFGAAGTQSAHSARMSPMMGAPMGAAGSKKRGKTKSVTSSVEEDNNIAALLGESPAVVPGVIGSWVRG", "soluble on expression in E. coli": "not soluble"}, {"sequence": "AGHMADGELNVDSLITRLLEVRGCRPGKIVQMTEAEVRGLCIKSREIFLSQPILLELEAPLKICGDIHGQYTDLLRLFEYGGFPPEANYLFLGDYVDRGKQSLETICLLLAYKIKYPENFFLLRGNHECASINRIYGFYDECKRRFNIKLWKTFTDCFNCLPIAAIVDEKIFCCHGGLSPDLQSMEQIRRIMRPTDVPDTGLLCDLLWSDPDKDVQGWGENDRGVSFTFGADVVSKFLNRHDLDLICRAHQVVEDGYEFFAKRQLVTLFSAPNYCGEFDNAGGMMSVDETLMCSFQILKPSEKKAKYQYGGLNSGRPVTPPRTANPPKKR", "soluble on expression in E. coli": "soluble"}]}]}
